Experimental data from the DeepSol protein solubility set.

Experiment: soluble on expression in E. coli; label from the status in PepcDB or PDB records
For “MSLADPNESTFARIRRTKKMRIGAVGGGAPYYMKDLASGQWKGFYVDIAKALADDMEAELEITETTWGNSVLDLQSNKIDIFFGLNPTPKRALVVDFSVPVFNNAFGILCKKDFKPKTWAELNSPDVKIAVDQGSSHDQVVSRLIPKAQISRLKTADDATAALQTGRVDAQCLITMLSLTVLKKNPSLGQFVLPTPIFATTSNAGFRRETDKTWRDYVNTWIDFNKGLGFIRNAIITNMELVGVTEADIPPGVSLEGHHHHHH”, the “soluble on expression in E. coli” value was “soluble”.
With “MGSDKIHHHHHHMSSTPSNQNIIPIIKKESIVSLFEKGIRQDGRKLTDYRPLSITLDYAKKADGSALVKLGTTMVLAGTKLEIDKPYEDTPNQGNLIVNVELLPLAYETFEPGPPDENAIELARVVDRSLRDSKALDLTKLVIEPGKSVWTVWLDVYVLDYGGNVLDACTLASVAALYNTKVYKVEQHSNGISVNKNEVVGKLPLNYPVVTISVAKVDKYLVVDPDLDEESIMDAKISFSYTPDLKIVGIQKSGKGSMSLQDIDQAENTARSTAVKLLEELKKHLGI” the “soluble on expression in E. coli” value was “not soluble”.
In the case of “MAASVEQREGTIQVQGQALFFREALPGSGQARFSVLLLHGIRFSSETWQNLGTLHRLAQAGYRAVAIDLPGLGHSKEAAAPAPIGELAPGSFLAAVVDALELGPPVVISPSLSGMYSLPFLTAPGSQLPGFVPVAPICTDKINAANYASVKTPALIVYGDQDPMGQTSFEHLKQLPNHRVLIMKGAGHPCYLDKPEEWHTGLLDFLQGLQ”, the “soluble on expression in E. coli” value was “soluble”.
In the case of “MSLYIKVLSVSELNNYIKRVVDSDYILSNAQVKGEISNFKFHSSGHVYFSLKDEGGKINCIMFRSNAEKLKFIPENGMKVNVKGRVSVYVKDGAYQLYCTEITPEGRGELYEAFEKLKEKLLNEGMFSEEHKRNIPKYPKMIGVITSPTGAAIRDIINVATRRNKSVDMIICPTLVQGVNAPGELIKALDYLNNREDIDTIILARGGGSIEELWAFNDEKLAYAVYNSKKPVVTGVGHETDFTIVDFVSDRRAPTPSAAAEIAVPNINEEMNSFVSLKRALDTSIKTYIQNKCNQLEIAKRMLEKNSPEILIVNGYSSIDNFKYVLDMRIANKIKIEKEKILRYNSILKSNSPINILNKGYSIISDEIGNNISNVDKLKEPDKVHITFKDGKVNAKIDILREGHHHHHH”, the “soluble on expression in E. coli” value was “soluble”.
In the case of “MSLPVCYYLDATGGDDNNSGLAPDEAWKSLEKLRGVKLLPGNKVLLKRGEVFNGELEITGQGIPEDRIYIDAYGDDERKPCIVGYDTSLYAARICNSDYITMQNLEIVNTGRQPLPYRSGLKIECMDYGVSQNIVVNNVTVRDVNGSLVKEKGGGCGIYIVNGGEKKISTFNRLTIENCHILRCTRNAMIWAAYSDRQNWHPSKHTVIRGNLIEEVPGDGIVPIGCDSTLIEYNVMRDCPDMLPDTEAAAGIWPWSCDNTLVQFNEVSGHKAPWDAQGFDSDWNCRGTVIQYNYSHDNYGGLVLVCNDGTADASFNVGNLGTIVRYNVSIGDGVRPEPTRAGMFSPAVHLAGPVKDSRITRNIIHVNRKPAADIDRTMITLDSWGGYPDSTFISGNIFYAPESSRFQLTESTHNFFEGNYYLGRFEKLPEDGKACQSAEIYQKEVLAKDENGYQGLALLMDTVEVTGVKGVFVNKEAIENFFSRLEKEGHHHHHH”, the “soluble on expression in E. coli” value was “soluble”.
With “AIAKLTDSVLRSFRVAKVFRENSDKINCFDFSSNGETVISSSDDDSIVLYDCQEGKPKRTLYSKKYGVDLIRYTHAANTVVYSSNKIDDTIRYLSLHDNKYIRYFPGHNKRVVALSMSPVDDTFISGSLDKTIRLWDLRSPNCQGLMHLQGKPVCSFDPEGLIFAAGVNSEMVKLYDLRSFDKGPFATFKLQYERTCEWTGLKFSNDGKLILVSTNGGTLRVLDAFKGAVLHSFGGYNNSKGVILEAPFTPDSQFIMIGSEDGKIHVWNAESGMKVALLDGKHTGPVTCLQFNPKFMTFASACSNMAFWLPTIDD” the “soluble on expression in E. coli” value was “soluble”.
For “MSLKRSIHVQAFVYNEKKDEILIVRNRNLAWTFPGGHVETDQTMEEALASKVKEQTNIDIEIESILHCKERRATWEHVCTFVFRAKPVGEMATFSNDDNVFRVKWIPIPLADDLLPIDQLSLNELVRSEGVLYENEGHHHHHH”, the “soluble on expression in E. coli” value was “soluble”.
For “MFKEVGEPNFPKLEEEVLAFWKREKIFQKSVENRKGGPRYTVYEGPPTANGLPHVGHAQARSYKDLFPRYKTMRGYYAPRRAGWDTHGLPVELEVEKKLGLKSKREIEAYGIERFNQACRESVFTYEKEWEAFTERIAYWVDLENAYATLEPTYIESIWWSLKNLFDRGLLYRDHKVVPYCPRCGTPLSSHEVALGYKEIQDPSVYVRFPLKEPKKLGLEKASLLIWTTTPWTLPGNVAAAVHPEYTYAAFQVGDEALILEEGLGRKLLGEGTPVLKTFPGKALEGLPYTPPYPQALEKGYFVVLADYVSQEDGTGIVHQAPAFGAEDLETARVYGLPLLKTVDEEGKLLVEPFKGLYFREANRAILRDLRGRGLLFKEESYLHSYPHCWRCSTPLMYYATESWFIKNTLFKDELIRKNQEIHWVPPHIKEGRYGEWLKNLVDWALSRNRYWGTPLPIWVCQACGKEEAIGSFQELKARATKPLPEPFDPHRPYVDQVELACACGGTMRRVPYVIDVWYDSGAMPFASLHYPFEHEEVFRESFPADFIAEGIDQTRGWFNFLHQLGVMLFGSIAFKNVICHGLILYEMGQKMSKSKGNVVDPWDIIREFGADALRWYIYVSAPPEADRRFGPNLVRETVRDYFLTLWNVYSFFVTYANLDRPDLKNPPPPEKRPEMDRWLLARMQDLIQRVTEALEAYDPTTSARALRDFVVEDLSQWYVRRNRRRFWKNEDALDREAAYATLYEALVLVATLAAPFTPFLAEVLWQNLVRSVRPEAKESVHLADWPEADPALADEALVAQMRAVLKVVDLARAARAKSGVKTRTPLPLLLVTAPTALEREGLKRFAHEIAEELNVKEVRVLEPGEEILSYRVLPNLKLLGRKYGKLVPKIREALQRERERAAALALKGEAIPLEVEGEALTLLPEEVLLEAEAPKGYQALEKDGYVAALKVEVTEALRMEGLARDLIRLLQQARKDMGLKVSDRIRVGYEAEGPYLEALKRHGPWIAEEVLATAFGEGLFGGFEARVEDEEGKAVFHLARAE”, the “soluble on expression in E. coli” value was “soluble”.
With “AMEDELKILIGKMRYRSSFGQNALQHSKEVALLAGLIAEQLGGDKKLARRAGILHDIGKALTQELGRDHVNLGVEVCKRHKEDPVVINAIYAHHGHEEILSVECASVCAADALSAGRPGARRKSDEEYAKRMQALEEIALEFDGVEKAYAMESGRELRVIVKSNQ” the “soluble on expression in E. coli” value was “not soluble”.
For “MKPKAMIRTMAIMKTADILKAMDITEELAKRMGFLPRDCLFLRLATEEACTNAYEYCQKTRKLPFRIFWKMEARQFMIIVKQRGGCFSVAQTDVVNTGPRGRGLQLITHIVDDVYVKQAGNNVLFCMCKCKK”, the “soluble on expression in E. coli” value was “not soluble”.
With “MEFAGTIFIELTFTPKVPRLNRDDLNKEMDRLDSSMAMRPIPPLPTESEYDYVHGSTMRQITPQCVSTSHEDKDEGQPYRNGNVFSMSSKSDTAVLANSNDPIILPPTFSASMGTTSTLETNDTAISNTSNTKFHFANLRKLKEKINIFKNPDSST” the “soluble on expression in E. coli” value was “not soluble”.
With “SARLPKLAVFDLDYTLWPFWVDTHVDPPFHKSSDGTVRDRRGQDVRLYPEVPEVLKRLQSLGVPGAAASRTSEIEGANQLLELFDLFRCYLHSHPEWNESSNSKSRVRDICEGPNWAFEVQP” the “soluble on expression in E. coli” value was “soluble”.
In the case of “MGSDKIHHHHHHMRVKYFGTDGIRGIFGETLTDELAFKVGKALGEIVGEGKVIVGKDTRVSGDSLEAAISAGLTSMGVDVLLCGILPTPAVALLTRITRSFGVVISASHNPPEYNGIKVLKGGYKIPDEMEAEIEKRLENGSFLTRSVVGRTKSFREGRDMYIGAVLEMFRDLDLTGEMVSLDLANGATTTTAREVFEFLGAKVEVFNDSQDGLLINQGCGATHPRFLAEEMKNGKVGFTFDGDGDRVIAVDEERNVVNGDRIIGILAVGLKEEGRLNSDTVVGTVMTNGGLEDFLKEKGIRLLRTKVGDKYVLEKMLESGANLGGERSGHIIILDRSTTGDGLITALELMRVLKRSGRKLSDFAKEIPDYPQITKNVRRTERMSLENENLRKIVEESTSRGYRVVIRPSGTEPVIRITVEGKDREEIEKIVEEISRVLES”, the “soluble on expression in E. coli” value was “not soluble”.
With “METAWSNILNYKNVSDRYILTEKDKKGAFTRQYFEVYEARLKELKPRILENAEREIGKGKFTHSQLSDAKQDEEIFVVGVIVKRIAARPSILKSLLNEDKVAYDDYEEDAEEDEVKRYAGSIEDRIELESDKQTVRLEGNISMDECATGCCVGVLGKLGKEGVFHVNRLVWPSVKVPKKVAVDGTIAFVSGLDLTGDLEDDRLTISGLEFMADWMNVQVGNENQCPPIDRLVVIGPLVETKSNGCDVQSVVRTLTLSRAEKHSSTASLITVDKIINSIAEKPLVNTVDVTPGVGDPCSSMWPLPPIHRVCLPRCGMSDKKVNLVTNPYEFEVNGLRVMTMSGENVSELLRTSLKWTGADAIENIIKWQHVAPNCPDTLDAFPVAERDPLIMDITPHVIICGNQPHAEFRHIPIDGSNCLVVCLPKFSKTRVACFLNLSDLSLKWQNFDHQF” the “soluble on expression in E. coli” value was “not soluble”.
For “MVSTYDEIEIEDMTFEPENQMFTYPCPCGDRFQIYLDDMFEGEKVAVCPSCSLMIDVVFDKEDLAEYYEEAGIHPPEPIAAAA”, the “soluble on expression in E. coli” value was “soluble”.
For “PVFENNNQRYYESLPFKQLKELKIACSQYGPTAPFTIAMIENLGTQALPPNDWKQTARACLSGGDYLLWKSEFFEQCARIADVNRQQGIQTSYEMLIGEGPYQATDTQLNFLPGAYAQISNAARQAWKRLPSLEHHHHHH”, the “soluble on expression in E. coli” value was “soluble”.
With “MYLHGTSRINGQGHLEIGGCDTTQLAKQYGTPLYVYDEGSIRGKCRAFHRAFKESGFSYQVAYASKAFLCMEMCRVAREENMSLDVVSGGELYTALQAGFPASRIHFHGNNKTEEEIVMALQANIGCFVVDNFFELEVLHDLAMQHGKFVNILIRVTPGVEAHTHEYITTGQDDSKFGFGVSNGQAMQAIGLALQKSNYNVLGIHSHIGSQIFETAGFVRAIEVLRQFLEEVREQTNYVVKVLNVGGGFGIRYTESDTPLTLETYVRAVTSAVREQFTVCEYPLPEIWIEPGRSIVGDAGTTIYTVGSVKDIPGIRKYVSVDGGMTDNLRPALYNARYEAMLANRANDENEELVSIAGKCCESGDMLIWDIHLPKVAASDLLAVSCTGAYGYSMANNYNRIRRPAVVFAKGGTSQVVVERETYENIIGNDRIRIKELV” the “soluble on expression in E. coli” value was “not soluble”.
In the case of “MVREAKNLRARTKKISLHICRKHAPQSEDFRCVFLRQQVIDRDIEAMAKPYDFYIVWKLSYNHVFTIHPRHTILELPPVYPDTALVPFFIMRFSFFDHMISCEYIFHRKLFVCLHRKNKQKQKSNM”, the “soluble on expression in E. coli” value was “not soluble”.
In the case of “MSLSHYTVGELANHLGVTVRTLQYYDRKGLLTAERATESNRRYYNDDHIQQLQLIFLLKQFGCTLDEIKTLLYEDSDMQTLKAMLQLHKKKLETSIHDQTKALKHLNNVDQYISSHSSAPINHLSDIDKAVKQSTTLKSEGHHHHHH”, the “soluble on expression in E. coli” value was “not soluble”.
With “MDFASSDGGGRTTTSAKIVVAGGFGVGKTTFVGAVSEINPLRTEAVMTSASAGIDDLTHTGDKTTTTVAMDFGRITLDQDLILYLFGTPGQDRFWFMWDDLVRGAIGAVVLVDTRRLADCFPAVDYFENSGLPFVIALNGFDGHQPYNPEEVREALQIGPDAPIITTDARHRADAKSALITLVEHALMARLRLEHHHHHH” the “soluble on expression in E. coli” value was “not soluble”.
In the case of “MGHHHHHHSHMTTPRSAPLYKLKSEDGQIFNVERGPMKFCAFINQKFIDHGVNDRNCERADPILVPFHSSIVQAVIEWLYHYQDNPLARRDSKIRYHDFSEWDKQFFNVESGVLFALLNASHALGVEDLMNMGCAAAAELIRGKSTEEIRKIYGIRSDEEQMEEALANGGEGTSAMTFTTDSD”, the “soluble on expression in E. coli” value was “soluble”.
In the case of “MITAERYHDISMGHRVVGHDHKCRHLHGHNYRIHFICSAPALDSIGRVVDFGVIKELLCQWLEDHWDHKMMLWEQDPLLPALRATVPDDLVAVPFNPTAENMAVYLTEVVGPMQLAGTGVTLIGCRVDETRKCSASYTL”, the “soluble on expression in E. coli” value was “not soluble”.
